From patent US20180142023A1 (Bristol-Myers Squibb, published 2018)

Target: human CD28 (human, UniProt P10747 19-220)
Test: cell-based or functional assay

B1: 1h-76 (other)
VL: DIQMTQSPSSLSASVGDRVTITCRASQYIGTRLVWYQQKPGKAPKLLIYQSSLLQSGVPSRFRGSGSGTDFTLTISSLQPEDSATYYCQQTALVPYTFGQGTKVEIKR
For B1, the “Luciferase assay (EC50)” value was 1800 nM.
